Assay results reported in PMC8252471, “Rerouting and Improving Dauc‐8‐en‐11‐ol Synthase from Streptomyces venezuelae to a High Yielding Biocatalyst” (Chemistry (Weinheim an Der Bergstrasse, Germany), 2021).
Substitutions are numbered along the chain they refer to. Numbers in names are those of the source.

B1: DcS (dauc-8-en-11-ol synthase; formerly isodauc-8-en-11-ol synthase, IdS) (Streptomyces venezuelae ATCC 10712) (protein)
chain: MTVRAVELPQLWMPYPLRVNPYLSALREESETWAREMGMLGGEGPSARGAIWTRSQFHAMTVELLTAWTLPDASLAGLRLNHRFNIWALAWDDYFASTFKQTGDLPGALDFTARLHAFLRPEADARSPEPVNAVERGIADLQKHLFPPRLAHWRQEFNLALAHYIDAGVQELTNSRGGRVPHLIEYAPFRRESFAAHTAPYSVELATGARIPEQLRHTRTVHALLDAFMDVMGLANDVASYEREVHEERDVNNLVVVIGTSLGITLHQAVPAALHMVNARMRDFEHLRHHELPPLVDRFGLRPDEREELETWLGGAASFLSGLHAWYTGAPRYAPTDHSVPEQRQRGGSEGAADRHAPAASSLARGAEAQTCGPTASAGSA
notes: motifs: D92 in 92DDYFA, R190, N236 in 236NDVASYERE, H58, H197, Y241
B2: DcS (dauc-8-en-11-ol synthase; formerly isodauc-8-en-11-ol synthase, IdS) (Streptomyces venezuelae ATCC 10712; H197F/Y241F) (protein)
chain: B1 chain with H197F, Y241F
notes: motifs: D92 in 92DDYFA, R190, N236 in 236…, H58, H197, Y241

Substrate: CC(C)=CCC/C(C)=C/CC/C(C)=C/CO[P@@](=O)(O)OP(=O)(O)O
Assay: enzyme kinetics
Format: biochemical, Streptomyces venezuelae

Protein	Km [mM]	kcat [s⁻¹]
B1	2.90 ± 0.02	35.6 ± 2.9
B2	5.95 ± 0.02	65.5 ± 8.6
